From the supplement of paper PMC10126150
± gives the standard deviation of the averaged measurements.

Tested on: ATP
Test: switch fluorescence ratio, 500 uM ATP over buffer (Cy3 cluster intensity, sum of 5 cycles each) (fold (ratio)); higher = stronger signal-on switching upon ATP binding; sequences stand for … in TCGTCGGCAGCGTCAGATGTGTATAAGAGACAGTTTTTTTTTTTTTTTTTTTTTTTTT…TC
Settings: aptamer strand: ATP DNA aptamer (quencher-CACCTGGGGGAGTATTGCGGAGGAAGG + anchor), 100 nM annealed; ATP concentration: 500 uM
Outline: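 Between each of five buffer/ATP cycles, the flow-cell was stripped with NaOH and re-annealed. Each cycle imaged Cy3-labelled switching-strand clusters, annealed to 100 nM quencher-labelled ATP aptamer on a modified Illumina MiSeq flow-cell, first in selection buffer and then after 15 min with 500 uM ATP at 22 °C. The fluorescence ratio is summed target-cycle over summed buffer-cycle Cy3 intensity per cluster, averaged per switch-domain sequence, with clusters outside 100-1000 RFU excluded.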
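Note: ATP exposure 15 min at 22 °C before imaging.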

| Sequence | switch fluorescence ratio |
| --- | --- |
| AGGACGGAAT | 1.091 ± 0.0016 |
| AGGACGGGCA | 1.05 ± 0.053 |
| AGGACTAAAG | 0.982 ± 0.013 |
| AGGAGAATGT | 1.02 ± 0.011 |
| AGGAGAGGAT | 1.14 ± 0.28 |
| AGGAGATTCA | 0.959 ± 0.041 |
| AGGAGCGTCG | 1.01 ± 0.013 |
| AGGAGCTAGT | 1.01 ± 0.038 |
| AGGAGCTGGT | 1.02 ± 0.012 |
| AGGAGGCTTC | 0.983 ± 0.029 |
| AGGAGGGGGC | 1 ± 0.048 |
| AGGAGGGTAA | 1.024 ± 0.0031 |
| AGGAGGGTTA | 1 ± 0.028 |
| AGGAGGTAAA | 1.002 ± 0.0034 |
| AGGAGGTGGG | 0.981 ± 0.017 |
| AGGAGTAGTC | 0.996 ± 0.021 |
| AGGAGTATTA | 0.983 ± 0.018 |
| AGGAGTCGGT | 1.01 ± 0.012 |
| AGGAGTTATT | 1 ± 0.024 |
| AGGAGTTGAA | 0.978 ± 0.016 |
| AGGATAAACT | 1 ± 0.013 |
| AGGATAACCG | 1.028 ± 0.0012 |
| AGGATACGGT | 1.0054 ± 0.00059 |

| Sequence | switch fluorescence ratio |
| --- | --- |
| AGGATATCAG | 0.991 ± 0.027 |
| AGGATATGGC | 1.09 ± 0.12 |
| AGGATGACAG | 0.998 ± 0.04 |
| AGGATGATGT | 1.01 ± 0.032 |
| AGGATGGACC | 1.01 ± 0.024 |
| AGGATGGAGG | 1.035 ± 0.0019 |
| AGGATGGTTT | 1.002 ± 0.0077 |
| AGGATGTTAT | 1 ± 0.016 |
| AGGATTCGGT | 1.01 ± 0.027 |
| AGGATTGAGT | 1.024 ± 0.0094 |
| AGGCAAATGC | 1.25 ± 0.1 |
| AGGCAACGAA | 1.04 ± 0.039 |
| AGGCAATTGT | 1.026 ± 0.01 |
| AGGCAGAGTA | 0.992 ± 0.038 |
| AGGCATATAG | 1.09 ± 0.077 |
| AGGCATTATA | 1.01 ± 0.013 |
| AGGCATTGGG | 1.0154 ± 0.00096 |
| AGGCCACTGA | 1.034 ± 0.0011 |
| AGGCCATAAG | 0.9953 ± 0.0034 |
| AGGCCCGGGA | 0.997 ± 0.013 |
| AGGCGAAGGG | 0.993 ± 0.032 |
| AGGCGGAAGT | 1.014 ± 0.0031 |
| AGGCGGGGGG | 1.02 ± 0.041 |

| Sequence | switch fluorescence ratio |
| --- | --- |
| AGGCGGGGTG | 1.04 ± 0.024 |
| AGGCGGGTAT | 1.015 ± 0.0028 |
| AGGCGGGTGG | 1.03 ± 0.019 |
| AGGCGTAAAA | 0.985 ± 0.019 |
| AGGCGTATTT | 0.9987 ± 0.0062 |
| AGGCGTTGGG | 1.01 ± 0.015 |
| AGGCTATATT | 0.975 ± 0.01 |
| AGGCTTAAAT | 0.989 ± 0.025 |
| AGGCTTATCG | 1.02 ± 0.024 |
| AGGCTTGATG | 0.972 ± 0.033 |
| AGGGAAAGCG | 0.996 ± 0.044 |
| AGGGAAAGGT | 1.06 ± 0.05 |
| AGGGAAATTT | 0.99 ± 0.014 |
| AGGGAACCGC | 1.016 ± 0.0062 |
| AGGGAACGAT | 0.9693 ± 0.0022 |
| AGGGAACTGT | 0.97 ± 0.056 |
| AGGGAAGCTT | 0.972 ± 0.035 |
| AGGGAATAGA | 0.989 ± 0.0094 |
| AGGGAATAGG | 1.01 ± 0.041 |
| AGGGAATATT | 1.01 ± 0.027 |
| AGGGACATGC | 1.0581 ± 0.00016 |
| AGGGACGAAT | 1.25 ± 0.092 |
| AGGGACGGAG | 1.01 ± 0.034 |

| Sequence | switch fluorescence ratio |
| --- | --- |
| AGGGACTGGT | 1.01 ± 0.036 |
| AGGGAGAAAA | 0.974 ± 0.039 |
| AGGGAGAGCG | 0.991 ± 0.071 |
| AGGGAGAGTC | 1.036 ± 0.0025 |
| AGGGAGATAG | 0.986 ± 0.016 |
| AGGGAGCAGA | 0.9948 ± 0.0059 |
| AGGGAGCGAA | 1.003 ± 0.0097 |
| AGGGAGCGGC | 1.11 ± 0.035 |
| AGGGAGGGCT | 1.02 ± 0.02 |
| AGGGAGGTGG | 1.02 ± 0.026 |
| AGGGAGTTTG | 0.983 ± 0.021 |
| AGGGATACCT | 1.04 ± 0.018 |
| AGGGATCGG | 1 ± 0.05 |
| AGGGATCGGG | 1.002 ± 0.01 |
| AGGGATCTTT | 0.963 ± 0.038 |
| AGGGATTATT | 1.02 ± 0.016 |
| AGGGCACAGT | 0.995 ± 0.016 |
| AGGGCAGCGT | 1.004 ± 0.0041 |
| AGGGCAGGTA | 1 ± 0.015 |
| AGGGCCGAT | 0.955 ± 0.046 |
| AGGGCCGGGC | 0.962 ± 0.044 |
| AGGGCCGGTA | 1.03 ± 0.026 |
| AGGGCGCCCG | 0.9884 ± 0.0023 |

| Sequence | switch fluorescence ratio |
| --- | --- |
| AGGGCGGAGT | 0.994 ± 0.022 |
| AGGGCTATGT | 0.9804 ± 0.005 |
| AGGGCTCGGG | 1.012 ± 0.0075 |
| AGGGCTGCAT | 0.9874 ± 0.0035 |
| AGGGCTGCCT | 1.05 ± 0.096 |
| AGGGCTGGGT | 1 ± 0.033 |
| AGGGCTTAGT | 0.995 ± 0.022 |
| AGGGCTTGAA | 0.991 ± 0.018 |
| AGGGCTTGTG | 0.987 ± 0.012 |
| AGGGCTTTTA | 1 ± 0.013 |
| AGGGGAAGAG | 0.994 ± 0.07 |
| AGGGGAAGGT | 0.984 ± 0.021 |
| AGGGGAATAG | 1.01 ± 0.016 |
| AGGGGAATAT | 1.03 ± 0.017 |
| AGGGGAATTT | 0.992 ± 0.03 |
| AGGGGACTTC | 1.04 ± 0.015 |
| AGGGGAGGGA | 1 ± 0.027 |
| AGGGGATTGC | 0.988 ± 0.019 |
| AGGGGCACTC | 0.992 ± 0.028 |
| AGGGGCAGCT | 0.977 ± 0.024 |
| AGGGGCATTC | 1.03 ± 0.064 |
| AGGGGCCATT | 1.009 ± 0.0098 |
| AGGGGCGAGC | 0.9616 ± 0.005 |

| Sequence | switch fluorescence ratio |
| --- | --- |
| AGGGGCGGTT | 0.978 ± 0.02 |
| AGGGGGAAGA | 1 ± 0.019 |
| AGGGGGAGGC | 1.01 ± 0.076 |
| AGGGGGCATT | 0.98 ± 0.011 |
| AGGGGGCGAT | 1.01 ± 0.039 |
| AGGGGGCGTT | 1.02 ± 0.042 |
| AGGGGGCTGC | 0.995 ± 0.023 |
| AGGGGGGATA | 1.02 ± 0.074 |
| AGGGGGGCAA | 1.03 ± 0.13 |
| AGGGGGGCAC | 0.984 ± 0.025 |
| AGGGGGGCGG | 0.992 ± 0.039 |
| AGGGGGGGC | 0.991 ± 0.015 |
| AGGGGGGGGA | 1.01 ± 0.05 |
| AGGGGGGTGG | 0.994 ± 0.052 |
| AGGGGGGTGT | 1.03 ± 0.028 |
| AGGGGGGTT | 1.01 ± 0.06 |
| AGGGGGTAAA | 0.975 ± 0.021 |
| AGGGGGTACG | 1.01 ± 0.035 |
| AGGGGGTAGC | 0.992 ± 0.047 |
| AGGGGGTCGG | 1.01 ± 0.03 |
| AGGGGGTGGC | 0.986 ± 0.048 |
| AGGGGTATAG | 0.995 ± 0.068 |
| AGGGGTATGT | 0.989 ± 0.023 |

| Sequence | switch fluorescence ratio |
| --- | --- |
| AGGGGTCCTT | 0.997 ± 0.026 |
| AGGGGTCGGC | 0.986 ± 0.016 |
| AGGGGTGCAG | 0.995 ± 0.01 |
| AGGGGTGCTG | 0.975 ± 0.039 |
| AGGGGTGGAA | 0.975 ± 0.022 |
| AGGGGTGTGG | 1.01 ± 0.017 |
| AGGGGTTAAC | 1.04 ± 0.042 |
| AGGGGTTCGG | 0.992 ± 0.026 |
| AGGGGTTTAT | 0.988 ± 0.021 |
| AGGGGTTTCG | 0.994 ± 0.025 |
| AGGGTAATTT | 1.043 ± 0.0063 |
| AGGGTACTGC | 1.02 ± 0.039 |
| AGGGTAGAGC | 1.09 ± 0.15 |
| AGGGTAGATC | 1.03 ± 0.018 |
| AGGGTAGCTT | 0.999 ± 0.031 |
| AGGGTAGGGA | 0.9917 ± 0.004 |
| AGGGTAGGGT | 1.01 ± 0.033 |
| AGGGTAGTCC | 0.986 ± 0.03 |
| AGGGTATCAG | 1.01 ± 0.039 |
